Reference: patent US20140140998A1 (LUDWIG INSTITUTE FOR CANCER RESEARCH, published 2014)
Where a chain is given by its changes, count along the chain named. In names and notes the source's numbering stands.

B1: type I receptor of transforming growth factor beta (TβRI), endogenous, full length (receptor)
chain: LQCFCHLCTKDNFTCVTDGLCFVSVTETTDKVIHNSMCIAEIDLIPRDRPFVCAPSSKTGSVTTTYCCNQDHCNKIELPTTVKSSPGLGPVELAAVIAGPVCFVCISLMLMVYICHNRTVIHHRVPNEEDPSLDRPFISEGTTLKDLIYDMTTSGSGSGLPLLVQRTIARTIVLQESIGKGRFGEVWRGKWRGEEVAVKIFSSREERSWFREAEIYQTVMLRHENILGFIAADNKDNGTWTQLWLVSDYHEHGSLFDYLNRYTVTVEGMIKLALSTASGLAHLHMEIVGTQGKPAIAHRDLKSKNILVKKNGTCCIADLGLAVRHDSATDTIDIAPNHRVGTKRYMAPEVLDDSINMKHFESFKRADIYAMGLVFWEIARRCSIGGIHEDYQLPYYDLVPSDPSVEEMRKVVCEQKLRPNIPNRWQSCEALRVMAKIMRECWYANGAARLTALRIKKTLSQLSQQEGIKM
notes: Endogenous receptor of human PC-3U prostate cancer cells, studied in cell lysates, cell fractions and fixed cells; also called TβRI-FL; ALK5
B2: HA-tagged caE161A TβRI mutant (HA-ca E161A) (receptor)
chain: B1 chain with E128A, T171D
notes: Expressed by transient transfection in PC-3U cells; also called HA-E161A; E161A mutant; not shown: HA tag fused to the C-terminus

Assays:
[1] = biological target: T1, tumor necrosis factor alpha converting enzyme (TACE), endogenous (human, UniProt P78536 215-824); test: co-immunofluorescence (co-localisation) in PC-3U cells
T1 construct: whole, on cells; also called ADAM17
Procedure: Panel e: PC-3U cells were treated with or without TGFβ for 30 min as indicated. […] Their colocalization is shown by the yellow color, as shown in merged images. The images on the left are enlarged from the areas enclosed in white boxes in the images to the right. DAPI staining was performed to detect cell nuclei (blue).

[2] = biological target: Presenilin 1 (PS1), endogenous (human, UniProt P49768 1-467); test: co-immunoprecipitation from transfected PC-3U cells

T1 sequence (P78536 215-824): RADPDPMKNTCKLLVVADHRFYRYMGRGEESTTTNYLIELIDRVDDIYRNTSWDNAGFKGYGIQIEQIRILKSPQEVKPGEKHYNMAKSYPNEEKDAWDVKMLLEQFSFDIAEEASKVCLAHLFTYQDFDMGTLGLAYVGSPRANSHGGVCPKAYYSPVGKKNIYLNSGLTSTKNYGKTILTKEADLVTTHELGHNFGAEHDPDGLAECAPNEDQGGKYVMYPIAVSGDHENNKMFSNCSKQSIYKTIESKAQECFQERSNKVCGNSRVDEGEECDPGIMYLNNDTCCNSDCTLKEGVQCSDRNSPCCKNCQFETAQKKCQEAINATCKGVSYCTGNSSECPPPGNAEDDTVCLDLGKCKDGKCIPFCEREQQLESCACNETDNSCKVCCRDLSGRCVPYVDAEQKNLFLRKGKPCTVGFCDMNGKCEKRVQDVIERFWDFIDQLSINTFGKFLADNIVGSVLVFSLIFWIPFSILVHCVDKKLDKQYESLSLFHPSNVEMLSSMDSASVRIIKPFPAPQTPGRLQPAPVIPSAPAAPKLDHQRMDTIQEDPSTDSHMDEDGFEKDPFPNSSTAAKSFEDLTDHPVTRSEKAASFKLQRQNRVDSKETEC

Binder | binding result [1] | binding result [2]
B1 | binds | 
B2 |  | no binding
